Source: PMC4156074

Experiments:
[1] = target: Full-length human plasma kallikrein, activated form (human) (UniProt P03952)
[2] = target: pKal from cynomolgus monkey plasma (cynomolgus monkey); assay: enzyme inhibition (steady state, tight-binding fit); DX-2930 on purified pKal of mouse, rat, rabbit and cynomolgus monkey; apparent; data not shown
[3] = target: Full-length human plasma kallikrein, activated form (human) (UniProt P03952); assay: enzyme inhibition (steady state, tight-binding fit); DX-2930 IgG (up to 10 nM, 1.5-fold dilutions) incubated 1 h at 30 °C with 1 nM pKal, free or preincubated with 600 nM 2-chain HMWK, in 20 mM Tris-HCl pH 7.5, 150 mM NaCl, 1 mM EDTA, 0.1% PEG-8000, 0.1% Triton X-100; substrate H-Pro-Phe-Arg-AMC at 10, 50 or 100 uM; Ki from Ki app by Equation 2, averaged

Full-length human plasma kallikrein, activated form (human), sequence (P03952 20-390, chain 1 of 2): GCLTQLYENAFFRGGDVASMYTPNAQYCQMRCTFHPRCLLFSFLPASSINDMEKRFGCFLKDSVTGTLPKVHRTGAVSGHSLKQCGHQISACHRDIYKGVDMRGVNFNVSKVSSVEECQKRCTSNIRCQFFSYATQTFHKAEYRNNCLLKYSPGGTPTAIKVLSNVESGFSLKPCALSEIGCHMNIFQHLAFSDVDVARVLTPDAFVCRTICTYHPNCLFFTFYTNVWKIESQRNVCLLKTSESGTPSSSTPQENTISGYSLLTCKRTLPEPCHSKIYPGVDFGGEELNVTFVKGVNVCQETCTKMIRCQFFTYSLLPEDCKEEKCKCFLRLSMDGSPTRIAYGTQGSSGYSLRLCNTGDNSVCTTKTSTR
Full-length human plasma kallikrein, activated form (human), sequence (P03952 391-638, chain 2 of 2): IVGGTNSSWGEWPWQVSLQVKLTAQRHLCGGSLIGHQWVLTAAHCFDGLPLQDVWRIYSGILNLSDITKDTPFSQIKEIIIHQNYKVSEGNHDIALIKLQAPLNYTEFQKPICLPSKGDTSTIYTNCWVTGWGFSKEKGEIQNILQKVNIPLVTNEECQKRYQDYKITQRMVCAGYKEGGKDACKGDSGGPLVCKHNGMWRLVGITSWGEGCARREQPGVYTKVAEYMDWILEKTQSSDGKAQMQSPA

B1: DX-2930, fully human IgG1 monoclonal antibody (antibody, V domains shown)
VH: EVQLLESGGGLVQPGGSLRLSCAASGFTFSHYIMMWVRQAPGKGLEWVSGIYSSGGITVYADSVKGRFTISRDNSKNTLYLQMNSLRAEDTAVYYCAYRRIGVPRRDEFDIWGQGTMVTVSS
VL: DIQMTQSPSTLSASVGDRVTITCRASQSISSWLAWYQQKPGKAPKLLIYKASTLESGVPSRFSGSGSGTEFTLTISSLQPDDFATYYCQQYNTYWTFGQGTKVEIK
[1]
  release of bradykinin from 1-chain HMWK (20 nM) by pKal (0.15 nM) after 1 h with DX-2930, bradykinin ELISA; blocks the proteolysis of HMWK by pKal: 1.3 nM
[2]
  Ki: 0.07 nM
[3]
  Ki: 0.12 nM
